Data on 7 molecules can be found in publication PMC4586043.

For one test, the target named is 3BC315 Fab. As to the kind of experiment: ELISA. Particulars: read off a plot. On the technique in general: An ELISA detects its analyte on a solid surface through an enzyme-linked reagent.
The next test has as its target 2G12. The test can be described thus: ELISA. Particulars: read at the highest antibody concentration, 1 µg/ml 2G12, read off a plot.
The target in test [1] is BG505 SOSIP.664 trimer produced in 293S cells (HIV-1 isolate BG505). The test can be described thus: ITC. (In ITC the heat of successive injections is recorded.)
Test [2] concerns the target BG505 SOSIP.664 trimer produced in 293S cells, deglycosylated by EndoH (HIV-1 isolate BG505). As to the kind of experiment: ITC; Auto-iTC200; trimer in the cell at 4.0–5.0 μM, 3BC315 Fab in the syringe at ~20 × the molar concentration of the trimer; single-site binding model.
Test [3] concerns the target His-tagged BG505 SOSIP.664 trimer produced in 293S cells, EndoH-deglycosylated (HIV-1 isolate BG505). As to the kind of experiment: SPR; Biacore 3000, 25 °C, HBS-EP; His-tagged trimer captured by anti-histidine antibody on CM5 to 500 RU; 3BC315 IgG or Fab titrated down in twofold steps from 1 μM; IgG fitted with a bivalent, Fab with a Langmuir model. A general note: SPR reads the build-up and loss of mass on a sensor chip optically.

Test [4] has as its target His-tagged BG505 SOSIP.664 trimer produced in 293T cells (HIV-1 isolate BG505). As to the kind of experiment: SPR. Also noted: kon1: unit not given here.
Another test concerns the target 3BC176 IgG. The test can be described thus: ELISA. The note with it: parent: est. 0.92; read off a plot.
The target of another test is PGT145. As to the kind of experiment: ELISA. The note with it: read at the highest antibody concentration, about 15 µg/ml PGT145; parent: est. 0.87; read off a plot.
In test [5] the target is BG505 Env on virus (HIV-1 isolate BG505).
The target of test [6] is JR-FL Env on virus (HIV-1 isolate JR-FL) (UniProt Q75760).

Turning to “D7324-tagged BG505 SOSIP.664 trimer produced in 293T cells N625Q; N637Q”, in the test with 3BC315 Fab (read at the highest concentration, 10 µg/ml 3BC315 Fab, parent: est. 1.1), the response worked out at 0.93 OD450.

“D7324-tagged BG505 SOSIP.664 trimer produced in 293T cells N88Q”: the response was 1 OD450 with 2G12 (parent: est. 1.2) and 0.98 OD450 with 3BC315 Fab.

As a reminder, the stoichiometry N is a count of units in the complex or per binding partner. Broadly, the koff is the first-order rate constant of dissociation. As to 3BC315 Fab, in test [1], the Kd amounted to 186 nM and the stoichiometry N was found to be 1.17. In [2], this molecule returned a Kd of 167 nM and a stoichiometry N of 1.71. In test [3], this molecule yielded a Kd of 7.1 nM, a koff of 0.00059 s⁻¹ and a stoichiometry N of 1.9.

In test [4], 3BC315 IgG (antibody) gave a Kd1 of less than 10 nM, a Kd2 of 24 RU, a koff1 of less than 1e-05 s⁻¹ and a koff2 of 0.0084 s⁻¹. In [4], the kon1 came out at 4900, the kon2 amounted to 0.00034 RUs^−1 and the stoichiometry N is 1.1.

On to “D7324-tagged BG505 SOSIP.664 trimer produced in 293T cells W623A”, for which the response stood at 1.2 OD450 with 2G12 (parent: est. 1.25), 0.4 OD450 with 3BC176 IgG and 0.83 OD450 with PGT145.

B1: 3BC315 IgG (antibody, V domains shown)
VH: QVQLVQSGAEMKDPGASVKVSCRASGYKFTDYYMHWVRQAPGQGLEWVGWVNTNGGFTKYGAKFQGRVTVTRDTSTNTVFLELSRLTFGDTAMYFCARPMRPVSHGIDYSGLFVFQFWGRGTMVTVSS
VL: QSALTQPASVSASPGQSITISCSGTRSDVGGYDFVSWYQQHPGKVPKLIIYEVTKRPSGIPQRFSGSKSGNTASLTISGLQADDEADYYCCSYANYDKLILGGGTKLTVL
In test [5], B1 came in with an IC50 of neutralisation of BG505 virus (TZM-bl) after 1, 3, 6 and 22 h pre-incubation with IgG (1.62 falling to 0.41) of 1.62 µg/mL. In test [6], this molecule yielded an IC50 of neutralisation of JR-FL virus (TZM-bl) after 1, 3, 6 and 22 h pre-incubation with IgG (5.84 falling to 0.83) of 5.84 µg/mL.

B2: 3BC176 IgG (antibody, V domains shown)
VH: QVQLMQSGAQLRDPGDSLKISCKASGYNFIDYHIHWVRLAPGRGLEWMGWIDPVGGITKYAGQFQGRLSLTRDTSTNTLFLELSRLTAGDTAVYFCARSMRPVDHGIDYSGLFVFHFWGRGSDVLVSS
VL: QSVLTQPASVSASPGQSITVSCTGSRNDVGGYDFVSWYQRHPGGVPKLIIYEISKRPSGIPQRFSGSRSGNTASLTISGLQDDDEADYYCCSYASYDRLIFGGGTRVSVL
Consider B2, for which the IC50 of neutralisation of BG505 virus (TZM-bl) after 1, 3, 6 and 22 h pre-incubation with IgG (1.93 falling to 0.33) in test [5] was found to be 1.93 µg/mL. The IC50 of neutralisation of JR-FL virus (TZM-bl) after 1, 3, 6 and 22 h pre-incubation with IgG (0.30 falling to 0.03) in test [6] worked out at 0.3 µg/mL.
